Reference: patent publication US20180111972A1 (Stanford University, published 2018)
Positions count from the first letter of the chain named. Names and notes keep the numbering of the source. Where two headings read alike, the source gives them in different places.

How the values were obtained:
[1] = biological target: T1, human VEGFR on human umbilical vein endothelial cells (HUVECs) (human, UniProt P35968 20-1356); experiment: flow cytometry on HUVECs, soluble ligand titrated 3 h at 4 C, anti-FLAG-PE
T1 construct: The phosphorylation blots on these cells detect VEGFR2
T1 sequence (P35968 20-1356 limits assumed): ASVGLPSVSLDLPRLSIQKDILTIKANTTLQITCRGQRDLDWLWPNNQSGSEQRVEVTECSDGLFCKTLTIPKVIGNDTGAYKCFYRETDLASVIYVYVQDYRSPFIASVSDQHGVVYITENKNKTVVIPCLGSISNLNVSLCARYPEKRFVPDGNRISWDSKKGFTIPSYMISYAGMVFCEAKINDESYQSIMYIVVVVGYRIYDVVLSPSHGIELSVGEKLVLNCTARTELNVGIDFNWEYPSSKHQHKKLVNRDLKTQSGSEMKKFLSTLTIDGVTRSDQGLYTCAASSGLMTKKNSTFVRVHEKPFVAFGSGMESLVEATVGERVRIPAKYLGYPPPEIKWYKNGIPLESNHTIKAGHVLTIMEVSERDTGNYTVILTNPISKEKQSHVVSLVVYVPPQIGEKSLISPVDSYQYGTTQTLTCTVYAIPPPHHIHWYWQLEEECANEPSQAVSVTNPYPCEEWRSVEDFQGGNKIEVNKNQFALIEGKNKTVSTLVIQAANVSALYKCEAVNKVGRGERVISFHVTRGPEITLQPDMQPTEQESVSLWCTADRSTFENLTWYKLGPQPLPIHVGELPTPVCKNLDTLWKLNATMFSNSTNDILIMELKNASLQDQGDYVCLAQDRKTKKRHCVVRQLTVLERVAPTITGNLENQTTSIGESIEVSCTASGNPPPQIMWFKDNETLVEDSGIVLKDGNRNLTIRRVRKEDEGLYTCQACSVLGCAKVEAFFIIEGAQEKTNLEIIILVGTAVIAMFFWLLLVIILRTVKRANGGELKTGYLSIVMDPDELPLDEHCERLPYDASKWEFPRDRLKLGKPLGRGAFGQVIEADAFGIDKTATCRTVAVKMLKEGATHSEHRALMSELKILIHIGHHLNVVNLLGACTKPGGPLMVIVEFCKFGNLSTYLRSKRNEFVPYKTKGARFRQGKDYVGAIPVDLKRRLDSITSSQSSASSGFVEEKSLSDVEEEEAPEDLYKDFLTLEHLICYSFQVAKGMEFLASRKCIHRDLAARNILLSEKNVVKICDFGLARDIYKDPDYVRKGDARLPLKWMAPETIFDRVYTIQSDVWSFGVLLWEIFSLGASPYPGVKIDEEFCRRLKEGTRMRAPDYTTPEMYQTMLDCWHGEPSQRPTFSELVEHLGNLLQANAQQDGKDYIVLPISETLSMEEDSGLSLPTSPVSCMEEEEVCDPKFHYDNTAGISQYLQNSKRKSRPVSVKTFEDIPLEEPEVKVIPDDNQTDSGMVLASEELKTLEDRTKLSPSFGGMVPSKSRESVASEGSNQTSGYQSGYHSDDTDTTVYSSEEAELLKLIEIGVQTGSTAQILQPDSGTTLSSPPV
Method: (§1) To test binding to VEGFR, human umbilical vein endothelial cells (HUVECs) and murine angiosarcoma endothelial cells (SVR) were used.
(§2) Cell-binding assay. Varying concentrations of scPDGF, scVEGF, and PDGF/VEGF ligands were incubated with 25,000 PDGFR- or VEGFR-expressing cells in binding buffer (20 mM Tris pH 7.5 with 1 mM MgCl₂, 1 mM MnCl₂, 2 mM CaCl₂, 100 mM NaCl, and 1 mg/ml BSA) for 5 hr (BJ-5ta, NIH/3T3) or 3 hr (HUVEC, SVR) at 4° C. Cells were washed and pelleted, then incubated with 1:100 R-PE-conjugated anti-FLAG antibody (Prozyme) for 15 min on ice. Cells were washed, pelleted, and resuspended in binding buffer immediately before analysis by flow cytometry using BD Accuri C6. Flow cytometry data were analyzed using BD Accuri C6 software, and statistical analysis was performed using GraphPad Prism 6.

[2] = biological target: T1, human VEGFR on human umbilical vein …; experiment: flow cytometry titration of the soluble FLAG-tagged protein on HUVECs, anti-FLAG detection
Method: as §1, §2

[3] = biological target: PDGFRβ on DiscoveRx PathHunter U2OS PDGFRβ reporter cells (UniProt P09619 33-1106, limits assumed); experiment: cell-based or functional assay
Sequence of PDGFRβ on DiscoveRx PathHunter U2OS PDGFRβ reporter cells (P09619 33-1106 limits assumed): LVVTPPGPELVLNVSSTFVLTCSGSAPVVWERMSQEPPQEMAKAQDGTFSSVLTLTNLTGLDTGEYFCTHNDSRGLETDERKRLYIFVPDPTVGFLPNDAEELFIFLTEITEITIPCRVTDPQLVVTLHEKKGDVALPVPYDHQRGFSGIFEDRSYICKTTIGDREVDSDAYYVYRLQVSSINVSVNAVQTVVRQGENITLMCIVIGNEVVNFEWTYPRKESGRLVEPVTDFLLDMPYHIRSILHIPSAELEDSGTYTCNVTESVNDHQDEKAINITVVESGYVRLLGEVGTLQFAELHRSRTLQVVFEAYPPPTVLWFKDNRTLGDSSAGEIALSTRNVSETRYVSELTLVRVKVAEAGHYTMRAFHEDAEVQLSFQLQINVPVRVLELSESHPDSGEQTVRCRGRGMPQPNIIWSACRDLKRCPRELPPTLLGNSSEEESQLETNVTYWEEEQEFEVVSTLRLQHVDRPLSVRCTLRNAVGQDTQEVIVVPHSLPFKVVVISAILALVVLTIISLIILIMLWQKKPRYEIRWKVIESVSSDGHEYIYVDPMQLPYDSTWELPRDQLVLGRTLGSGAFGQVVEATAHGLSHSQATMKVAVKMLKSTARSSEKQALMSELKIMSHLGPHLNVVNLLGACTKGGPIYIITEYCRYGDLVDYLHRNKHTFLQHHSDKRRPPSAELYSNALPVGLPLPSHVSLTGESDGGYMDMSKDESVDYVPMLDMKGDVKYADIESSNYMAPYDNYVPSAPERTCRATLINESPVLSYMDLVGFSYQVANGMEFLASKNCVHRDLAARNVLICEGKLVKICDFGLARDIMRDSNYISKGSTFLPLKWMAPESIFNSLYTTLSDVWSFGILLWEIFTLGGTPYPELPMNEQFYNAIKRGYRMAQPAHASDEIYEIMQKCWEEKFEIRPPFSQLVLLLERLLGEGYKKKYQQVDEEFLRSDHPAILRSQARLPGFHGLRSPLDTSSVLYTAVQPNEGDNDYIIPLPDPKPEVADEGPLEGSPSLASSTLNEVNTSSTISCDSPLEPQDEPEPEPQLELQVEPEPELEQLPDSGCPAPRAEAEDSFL

[4] = biological target: T2, soluble VEGFR2 (Fc or His format not stated for the experiment) (human, UniProt P35968 20-764); experiment: yeast surface display, flow cytometry dot plot: soluble receptor bound (FL1) against surface expression (FL2); receptor concentration not printed [Cont.]
T2 construct: extracellular domain
T2 sequence (P35968 20-764): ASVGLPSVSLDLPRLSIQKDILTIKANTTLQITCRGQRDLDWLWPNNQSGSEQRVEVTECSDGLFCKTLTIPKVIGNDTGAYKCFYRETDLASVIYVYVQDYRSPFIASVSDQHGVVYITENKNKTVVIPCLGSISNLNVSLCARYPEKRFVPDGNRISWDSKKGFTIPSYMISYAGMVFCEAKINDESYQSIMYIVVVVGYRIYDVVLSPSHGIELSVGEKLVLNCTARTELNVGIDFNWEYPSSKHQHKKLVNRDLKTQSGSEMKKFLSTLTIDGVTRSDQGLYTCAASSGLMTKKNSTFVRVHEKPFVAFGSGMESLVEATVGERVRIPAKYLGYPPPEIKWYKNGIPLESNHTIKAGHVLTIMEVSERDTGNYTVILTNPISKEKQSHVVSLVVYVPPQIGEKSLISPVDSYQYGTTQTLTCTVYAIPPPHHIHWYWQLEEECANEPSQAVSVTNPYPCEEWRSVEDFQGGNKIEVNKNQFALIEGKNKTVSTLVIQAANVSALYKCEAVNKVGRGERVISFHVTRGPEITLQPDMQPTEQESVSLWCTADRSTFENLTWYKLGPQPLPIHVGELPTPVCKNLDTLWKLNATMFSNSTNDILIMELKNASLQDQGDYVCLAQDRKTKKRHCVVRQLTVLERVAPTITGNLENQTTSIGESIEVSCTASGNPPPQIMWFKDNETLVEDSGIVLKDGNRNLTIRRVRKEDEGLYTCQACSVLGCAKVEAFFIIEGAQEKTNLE

[5] = biological target: T3, soluble PDGFRβ (Fc or His format not stated for the experiment) (human, UniProt P09619 33-532); experiment: as above
T3 construct: extracellular domain
T3 sequence (P09619 33-532): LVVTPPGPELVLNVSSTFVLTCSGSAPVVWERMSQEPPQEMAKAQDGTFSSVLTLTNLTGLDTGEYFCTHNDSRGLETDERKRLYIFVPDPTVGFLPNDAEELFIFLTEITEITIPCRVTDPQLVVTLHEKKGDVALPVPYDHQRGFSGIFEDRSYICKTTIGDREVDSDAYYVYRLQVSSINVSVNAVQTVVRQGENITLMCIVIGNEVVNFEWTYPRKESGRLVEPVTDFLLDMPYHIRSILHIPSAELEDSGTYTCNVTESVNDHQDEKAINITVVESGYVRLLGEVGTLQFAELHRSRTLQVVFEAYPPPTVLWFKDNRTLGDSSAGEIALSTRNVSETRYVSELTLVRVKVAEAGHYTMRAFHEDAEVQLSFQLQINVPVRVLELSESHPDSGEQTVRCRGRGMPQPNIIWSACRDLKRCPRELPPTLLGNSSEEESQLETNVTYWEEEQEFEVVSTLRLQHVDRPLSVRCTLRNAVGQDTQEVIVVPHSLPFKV

[6] = biological target: T2, soluble VEGFR2 (Fc or His format not …); experiment: yeast surface display, flow cytometry dot plot: soluble receptor bound (FL1) against surface expression (FL2); receptor concentration not given
[7] = biological target: T3, soluble PDGFRβ (Fc or His format not …); experiment: yeast surface display titration; table under the panel 'PDGFR binding', Fc or His form not given
[8] = biological target: T4, PDGFRβ-His (residues 1-314 of PDGFR-β with C-terminal hexahistidine tag) (human, UniProt P09619 33-314); experiment: yeast surface display titration, flow cytometry; PDGFRβ-His (monovalent)
T4 construct: range 1-314; Monovalent form, expressed in FreeStyle 293-F cells; also called PDGRβ-His; PDGFR-His
T4 sequence (P09619 other isoform, or with tags, fused parts or gaps limits assumed, form in doubt): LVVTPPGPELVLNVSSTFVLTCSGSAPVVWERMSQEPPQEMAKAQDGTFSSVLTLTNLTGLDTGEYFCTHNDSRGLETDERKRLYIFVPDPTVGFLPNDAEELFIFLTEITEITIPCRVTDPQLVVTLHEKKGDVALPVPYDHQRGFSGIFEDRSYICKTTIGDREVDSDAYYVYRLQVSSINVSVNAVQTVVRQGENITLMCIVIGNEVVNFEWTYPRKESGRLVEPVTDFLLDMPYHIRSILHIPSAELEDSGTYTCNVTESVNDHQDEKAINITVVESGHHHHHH
Method: We tested the monovalent version of PDGFR (PDGRβ-His) to remove any avidity effects that may affect the measurements.
(§3) Cells were incubated in large enough volumes to avoid ligand depletion and appropriate time to reach equilibrium. During the last hour of incubation, yeast were incubated with 1:250 dilution of chicken anti-c-Myc (Invitrogen) in PBSA. […] Yeast were washed, pelleted, and resuspended in PBSA immediately before analysis by flow cytometry using BD FACSCalibur or BD Accuri C6. Flow cytometry data were analyzed using FlowJo (v7.6.1 and v10, Treestar) or BD Accuri C6 software. Statistical analysis was performed using GraphPad Prism 6.

[9] = biological target: T5, PDGFRβ-Fc (residues 1-314 of PDGFR-β fused to the Fc region of mouse IgG2a) (human; mouse, UniProt P09619 33-314); experiment: yeast surface display titration, flow cytometry; PDGFRβ-Fc (bivalent)
T5 construct: range 1-314; Expressed in FreeStyle 293-F cells; also called PDGRβ-Fc; PDGFR-Fc; not shown: Fc region of mouse IgG2a
T5 sequence (P09619 33-314 limits assumed, form in doubt): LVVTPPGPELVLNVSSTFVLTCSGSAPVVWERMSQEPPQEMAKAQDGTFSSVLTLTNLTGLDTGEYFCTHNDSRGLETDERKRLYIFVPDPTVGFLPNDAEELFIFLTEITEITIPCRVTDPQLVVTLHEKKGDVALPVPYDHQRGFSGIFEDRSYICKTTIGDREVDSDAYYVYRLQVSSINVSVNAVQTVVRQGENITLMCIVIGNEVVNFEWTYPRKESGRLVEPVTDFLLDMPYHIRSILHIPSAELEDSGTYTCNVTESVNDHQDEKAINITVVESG
Method: as §3

[10] = biological target: T3, soluble PDGFRβ (Fc or His format not …); experiment: yeast surface display, flow cytometry titration of soluble receptor; panel 'PDGFR binding', Fc or His form not given
[11] = biological target: T4, PDGFRβ-His (residues 1-314 of PDGFR-β …); experiment: yeast surface display, flow cytometry titration of PDGFRβ-His
Method: as §3

[12] = biological target: T6, VEGFR2-His (residues 1-764 of VEGFR2, Ig-like domains 1-7, with hexahistidine tag) (human, UniProt P35968 20-764); experiment: yeast surface display titration, flow cytometry
T6 construct: range 1-764; Monomeric form, expressed in FreeStyle 293-F cells; also called VEGFR-His
T6 sequence (P35968 other isoform, or with tags, fused parts or gaps limits assumed, form in doubt): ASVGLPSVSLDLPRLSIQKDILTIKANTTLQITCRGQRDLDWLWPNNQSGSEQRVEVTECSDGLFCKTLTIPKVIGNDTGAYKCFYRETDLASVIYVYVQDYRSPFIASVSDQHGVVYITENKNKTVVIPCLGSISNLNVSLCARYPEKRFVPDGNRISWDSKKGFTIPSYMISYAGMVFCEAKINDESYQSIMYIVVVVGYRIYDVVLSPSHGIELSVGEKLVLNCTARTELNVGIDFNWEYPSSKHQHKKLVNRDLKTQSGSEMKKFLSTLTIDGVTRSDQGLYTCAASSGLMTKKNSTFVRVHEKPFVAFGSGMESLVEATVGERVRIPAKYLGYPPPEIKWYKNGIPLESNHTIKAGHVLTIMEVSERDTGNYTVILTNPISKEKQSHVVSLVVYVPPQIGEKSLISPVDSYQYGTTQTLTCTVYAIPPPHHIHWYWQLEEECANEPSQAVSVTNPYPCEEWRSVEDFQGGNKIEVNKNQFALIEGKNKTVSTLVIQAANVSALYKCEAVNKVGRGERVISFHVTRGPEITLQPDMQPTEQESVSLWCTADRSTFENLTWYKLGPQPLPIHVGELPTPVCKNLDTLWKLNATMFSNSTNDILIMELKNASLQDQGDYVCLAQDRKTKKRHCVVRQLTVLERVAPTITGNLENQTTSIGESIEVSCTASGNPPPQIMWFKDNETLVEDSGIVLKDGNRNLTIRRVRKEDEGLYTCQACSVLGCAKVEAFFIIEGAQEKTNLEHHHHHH
Method: as §3

[13] = biological target: T4, PDGFRβ-His (residues 1-314 of PDGFR-β …); experiment: yeast surface display titration, flow cytometry
Method: as §3

[14] = biological target: T5, PDGFRβ-Fc (residues 1-314 of PDGFR-β …); experiment: yeast surface display, flow cytometry titration of PDGFRβ-Fc
Method: as §3

[15] = biological target: T6, VEGFR2-His (residues 1-764 of VEGFR2, …); experiment: yeast surface display titration, flow cytometry; remark: listed apart in the source
Method: as §3

[16] = biological target: T4, PDGFRβ-His (residues 1-314 of PDGFR-β …); experiment: yeast surface display titration, flow cytometry; remark: listed apart in the source
Method: as §3

[17] = biological target: T6, VEGFR2-His (residues 1-764 of VEGFR2, …); experiment: yeast surface display, flow cytometry equilibrium titration of VEGFR2-His, normalized fluorescence
Method: as §3

VEGFR2-Fc (R&D Systems) = biological target: T7, VEGFR2-Fc (R&D Systems) (human, UniProt P35968 20-764); experiment: yeast surface display, flow cytometry titration of VEGFR2-Fc
T7 construct: extracellular domain; Bought reagent; also called VEGFR-Fc; not shown: Fc part, detected with anti-human-IgG (Fc specific)
T7 sequence (P35968 20-764): as the sequence (P35968 20-764) above
Method: as §3

[18] = biological target: T4, PDGFRβ-His (residues 1-314 of PDGFR-β …); experiment: yeast surface display, flow cytometry equilibrium titration of PDGFRβ-His (panel 'PDGFR-His'), normalized fluorescence
Method: as §3

B1: PVAM-S (PV R32A), soluble, FLAG and hexahistidine tags (designed binder)
chain: DYKDDDDKIAEPAMIAECHPIETLVDILQEYPDEIGYIFKPSCVPLMRCGGCCNNRNVQCRPTEESNITMQIMRIKPHRGQHIGEMSFLQHNKCRCETVAAGSTSGSGKSSEGKGEVVKFMDVYQRSYCKTRTEVFEISRRLIDATNANFLVWPPCVEVQRCSGCCNHEGLECVPTQVQLRPVQVRKIEFVRKKPIFKKATVTLEDHLACECRPKKDHHHHHH
notes: Secreted from S. cerevisiae YVH10 and treated with Endo Hf
[1]
  Kd: 0.53 nM
[2]
  EC50 (read off the curve): ~0.7 nM
[3]
  IC50 of inhibition of stimulation by 0.5 nM PDGF-BB, PathHunter PDGFRβ reporter cells: 1.4 nM

B2: PV3 PDGF/VEGF hybrid construct, yeast-displayed (designed binder)
chain: IAEPAMIAECKTRTEVVDIFQEYPDEIEYIFKPSCVPLMRCSGCCNNRNVQCRPTEESNITMQIMRIKPHQGQHIGEMSFLQHLACKCETVAAGSTSGSGKSSEGKGEVVKFMDVYQRSYCHPIETLFEISRRLIDRTNANFLVWPPCVEVQRCGGCCNDEGLECVPTQVQLRPVQVRKIEIVRKKPIFKKATVTLEDHNKCECRPKKD
notes: only PV1
[4]
  binding result: no binding
[5]
  binding result: no binding

B3: PV4 PDGF/VEGF hybrid construct, yeast-displayed (designed binder)
chain: B2 chain with V17F, F128V
notes: only PV1
[4]
  binding result: no binding
[5]
  binding result: no binding

B4: PV5 PDGF/VEGF hybrid construct, yeast-displayed (designed binder)
chain: B2 chain with V17F, D18E, F128V, E129D
notes: only PV1
[4]
  binding result: no binding
[5]
  binding result: no binding

B5: PV7 PDGF/VEGF hybrid construct, yeast-displayed (designed binder)
chain: B2 chain with T14E, E15T, V16L, L84N, A85K, E125T, T126E, L127V, N200L, K201A
notes: the text names only PV6
[6]
  binding result: binds

B6: PV8 PDGF/VEGF hybrid construct, yeast-displayed (designed binder)
chain: B2 chain with R13I, T14E, E15T, V16L, I124R, E125T, T126E, L127V
notes: the text names only PV6
[6]
  binding result: binds

B7: PV6 PDGF/VEGF chimera, yeast-displayed (designed binder)
chain: IAEPAMIAECHPIETLVDIFQEYPDEIEYIFKPSCVPLMRCGGCCNNRNVQCRPTEESNITMQIMRIKPHQGQHIGEMSFLQHNKCKCETVAAGSTSGSGKSSEGKGEVVKFMDVYQRSYCKTRTEVFEISRRLIDRTNANFLVWPPCVEVQRCSGCCNDEGLECVPTQVQLRPVQVRKIEIVRKKPIFKKATVTLEDHLACKCRPKKD
[7]
  Kd: 140 nM
[8]
  Kd: 140 nM
[9]
  Kd: 0.099 nM
[10]
  EC50 (read off the curve): ~100 nM
[11]
  EC50 (read off the curve): ~100 nM
[12]
  Kd: 230 nM
[13]
  Kd: 270 nM

B8: PV6 I182F variant, yeast-displayed (designed binder)
chain: B7 chain with I182F, K203E
notes: Clone from the PDGFR sorts of the error-prone library made from PV6; also called PV I182F
[8]
  Kd: 2.5 nM
[9]
  Kd: 0.067 nM
[11]
  EC50 (read off the curve): ~3 nM
[14]
  EC50 (read off the curve): ~0.07 nM

B9: PV6 K87R variant, yeast-displayed (designed binder)
chain: B7 chain with K87R
notes: Clone from the PDGFR sorts of the error-prone library made from PV6; also called PV K87R
[8]
  Kd: 6.4 nM
[9]
  Kd: 0.049 nM
[11]
  EC50 (read off the curve): ~6 nM
[14]
  EC50 (read off the curve): ~0.05 nM

B10: PVAM-S (PV R32A), yeast-displayed (designed binder)
chain: B7 chain with F20L, E28G, Q71R, K87R, R137A, D160H, I182F, K203E
notes: PVAM with R137A (R32A in PDGF-B numbering); also called R137A variant
[15]
  Kd: 1 nM
[16]
  Kd: 0.34 nM
[17]
  EC50 (read off the curve): ~1 nM

B11: V3-3, yeast-displayed variant from the Vshuf library (designed binder)
chain: B7 chain with M6V, F20L, E28G, Q71R, D160H, K203E
VEGFR2-Fc (R&D Systems)
  binding result: binds

B12: V5-5, yeast-displayed variant from the Vshuf library (designed binder)
chain: B7 chain with M6V, F20L, E28G, Q71R, D160H, K203E, D209V
VEGFR2-Fc (R&D Systems)
  binding result: binds

B13: PVGS, yeast-displayed (designed binder)
chain: IAEPAMIAECHPIETLVDILQEYPDEIGYIFKPSCVPLMRCGGCCNNRNVQCRPTEESNITMQIMRIKPHRGQHIGEMSFLQHNKCRCETVAAGGGGSGGGGSGGGGSGGGGSEVVKFMDVYQRSYCKTRTEVFEISRRLIDATNANFLVWPPCVEVQRCSGCCNHEGLECVPTQVQLRPVQVRKIEFVRKKPIFKKATVTLEDHLACECRPKKD
[18]
  EC50 (read off the curve): ~0.3 nM
[15]
  Kd: 1.1 nM
[16]
  Kd: 0.25 nM
[17]
  EC50 (read off the curve): ~1 nM
